Target: T1, GST-tagged PABP1 (UniProt P11940 1-636)
T1 construct: also called GST-PABP1; source: E. coli BL21(DE3) from pGEX2T, purified (glutathione Sepharose 4B)
Test: pull-down; as the GST pull-down, with 0.1 mg/ml RNase A added to the TnT reaction, 30 min at 30 °C before pull down; value relative to no RNase A
Conditions: one partner purified

percent pull-down with RNase A relative to no RNase A: 79%
B1: wild type Unr, in vitro translated, 35S-labelled (natural protein, human, UniProt O75534-2 1-767, looked up)
chain: MSFDPNLLHNNGHNGYPNGTSAALRETGVIEKLLTSYGFIQCSERQARLFFHCSQYNGNLQDLKVGDDVEFEVSSDRRTGKPIAVKLVKIKQEILPEERMNGQEVFYLTYTPEDVEGNVQLETGDKINFVIDNNKHTGAVSARNIMLLKKKQARCQGVVCAMKEAFGFIERGDVVKEIFFHYSEFKGDLETLQPGDDVEFTIKDRNGKEVATDVRLLPQGTVIFEDISIEHFEGTVTKVIPKVPSKNQNDPLPGRIKVDFVIPKELPFGDKDTKSKVTLLEGDHVRFNISTDRRDKLERATNIEVLSNTFQFTNEAREMGVIAAMRDGFGFIKCVDRDVRMFFHFSEILDGNQLHIADEVEFTVVPDMLSAQRNHAIRIKKLPKGTVSFHSHSDHRFLGTVEKEATFSNPKTTSPNKGKEKEAEDGIIAYDDCGVKLTIAFQAKDVEGSTSPQIGDKVEFSISDKQRPGQQVATCVRLLGRNSNSKRLLGYVATLKDNFGFIETANHDKEIFFHYSEFSGDVDSLELGDMVEYSLSKGKGNKVSAEKVNKTHSVNGITEEADPTIYSGKVIRPLRSVDPTQTEYQGMIEIVEEGDMKGEVYPFGIVGMANKGDCLQKGESVKFQLCVLGQNAQTMAYNITPLRRATVECVKDQFGFINYEVGDSKKLFFHVKEVQDGIELQAGDEVEFSVILNQRTGKCSACNVWRVCEGPKAVAAPRPDRLVNRLKNITLDDASAPRLMVLRQPRGPDNSMGFGAERKIRQAGVID
modifications: radiolabelled with [35S] methionine
notes: numbers count on: Unr protein isoform 2; Same pET21d plasmids as for the histidine-tagged recombinant Unr; also called wt Unr; CSDE1; source: in vitro transcribed/translated from pET21d plasmid (TnT Quick Coupled System, Promega), not purified

— publication PMC4776140, “Stimulation of translation by human Unr requires cold shock domains 2 and 4, and correlates with poly(A) binding protein interaction” (Scientific Reports, 2016)
